Results reported in IntAct's records for PubMed 20668449.

B1: N-terminal Xaa-Pro-Lys N-methyltransferase 1 (Homo sapiens), Q9BV86 (parent)
chain: MTSEVIEDEKQFYSKAKTYWKQIPPTVDGMLGGYGHISSIDINSSRKFLQRFLREGPNKTGTSCALDCGAGIGRITKRLLLPLFREVDMVDITEDFLVQAKTYLGEEGKRVRNYFCCGLQDFTPEPDSYDVIWIQWVIGHLTDQHLAEFLRRCKGSLRPNGIIVIKDNMAQEGVILDDVDSSVCRDLDVVRRIICSAGLSLLAEERQENLPDEIYHVYSFALR
B2: Regulator of chromosome condensation (Homo sapiens), P18754 (parent)
chain: MSPKRIAKRRSPPADAIPKSKKVKVSHRSHSTEPGLVLTLGQGDVGQLGLGENVMERKKPALVSIPEDVVQAEAGGMHTVCLSKSGQVYSFGCNDEGALGRDTSVEGSEMVPGKVELQEKVVQVSAGDSHTAALTDDGRVFLWGSFRDNNGVIGLLEPMKKSMVPVQVQLDVPVVKVASGNDHLVMLTADGDLYTLGCGEQGQLGRVPELFANRGGRQGLERLLVPKCVMLKSRGSRGHVRFQDAFCGAYFTFAISHEGHVYGFGLSNYHQLGTPGTESCFIPQNLTSFKNSTKSWVGFSGGQHHTVCMDSEGKAYSLGRAEYGRLGLGEGAEEKSIPTLISRLPAVSSVACGASVGYAVTKDGRVFAWGMGTNYQLGTGQDEDAWSPVEMMGKQLENRVVLSVSSGGQHTVLLVKDKEQS

Variants of: B1
Conditions: with rcc1_human RCC1, P18754

| Variant | effect of a mutation on the interaction |
| --- | --- |
| N168K | disrupting interaction |
| D180K | disrupting interaction |

Variants of: B2
Conditions: with ntm1a_human NTMT1, Q9BV86

| Variant | effect of a mutation on the interaction |
| --- | --- |
| K4Q | disrupting interaction |

Variants of: B2
Conditions: with ntm1a_human NTMT1, Q9BV86
Remark: another data set of the same source

| Variant | effect of a mutation on the interaction |
| --- | --- |
| S2V | decreasing interaction |
| S2D | disrupting interaction strength |
